Data as given in patent US20240132578A1.

Assays:
Assay in all cases: cell-based or functional assay
[1] = biological target: HIV-1 Env of pseudovirus MGRM-F1-010 (HIV-1)
[2] = biological target: HIV-1 envelope glycoprotein (Env) of isolate MG RM-AG-012 (HIV-1)
[3] = biological target: HIV-1 Env of isolate MGRM-F1-012 (HIV-1)
[4] = biological target: HIV-1 Env of isolate MGRM-AE-004 (subtype AE) (HIV-1)
[5] = biological target: HIV-1 Env of isolate JRFL (HIV-1)
[6] = biological target: HIV-1 JR-CSF Env L416A (HIV-1 (isolate JR-CSF)) (UniProt P20871)
[7] = biological target: HIV-1 JR-CSF Env R419A (HIV-1 (isolate JR-CSF)) (UniProt P20871)
[8] = biological target: HIV-1 Env of isolate MGRM-C-001 (HIV-1)
[9] = biological target: HIV-1 Env of pseudovirus isolate MGRM-C-024 (clade C) (HIV-1)
[10] = biological target: HIV-1 Env of isolate 92WR026 (pseudovirus) (HIV-1)
[11] = biological target: HIV-1 Env of pseudovirus isolate MGRM-C-008 (clade C) (HIV-1)
[12] = biological target: HIV-1 JR-CSF Env T394A (HIV-1 (isolate JR-CSF)) (UniProt P20871)
[13] = biological target: HIV-1 Env of isolate MGRM-F1-014 (HIV-1)
[14] = biological target: HIV-1 Env of pseudovirus isolate MGRM-C-017 (clade C) (HIV-1)
[15] = biological target: HIV-1 JR-CSF Env T413A (HIV-1 (isolate JR-CSF)) (UniProt P20871)
[16] = biological target: HIV-1 Env of pseudovirus isolate MGRM-C-022 (clade C) (HIV-1)
[17] = biological target: HIV-1 Env of isolate MGRM-A-002 (pseudovirus) (HIV-1)
[18] = biological target: HIV-1 Env of isolate MGRM-D-018 (pseudovirus) (HIV-1)
[19] = biological target: HIV-1 Env of isolate MGRM-C-014 (subtype C), on pseudovirus (HIV-1)
[20] = biological target: HIV-1 Env of pseudovirus isolate MGRM-Chronic-B-002 (clade B) (HIV-1)
[21] = biological target: HIV-1 Env of isolate MGRM-G-015 (subtype G) (HIV-1)
[22] = biological target: HIV-1 JR-CSF Env P313A (HIV-1 (isolate JR-CSF, clade B)) (UniProt P20871)
[23] = biological target: HIV-1 envelope glycoprotein (Env) of isolate 93UG077, subtype A (HIV-1)
[24] = biological target: HIV-1 envelope glycoprotein (Env) of isolate MG RM-A-013, subtype A (HIV-1)
[25] = biological target: HIV-1 Env of isolate MGRM-F1-023 (pseudovirus) (HIV-1)
[26] = biological target: HIV-1 Env of isolate MGRM-F1-020 (pseudovirus) (HIV-1)
[27] = biological target: HIV-1 envelope glycoprotein (Env) of isolate CAAN.A2, on pseudovirus (HIV-1)
[28] = biological target: HIV-1 envelope glycoprotein (Env) of isolate CMU02, subtype AE (HIV-1)
[29] = biological target: HIV-1 envelope glycoprotein (Env) of isolate MG RM-A-008, subtype A (HIV-1)
[30] = biological target: HIV-1 envelope glycoprotein (Env) of isolate MGRM-Chronic-B-024, on pseudovirus (HIV-1)
[31] = biological target: HIV-1 Env of isolate MGRM-AG-003 (pseudovirus) (HIV-1)
[32] = biological target: HIV-1 JRCSF Env (HIV-1) (UniProt P20871)
[33] = biological target: HIV-1 92BR020 Env (HIV-1)
[34] = biological target: HIV-1 NL43 Env (HIV-1)
[35] = biological target: HIV-1 APV6 Env (HIV-1)

PGT-143 (4980_N08) (antibody) was tested, and the IC50, pseudovirus neutralization [1] was over 50 mg/L and the IC50 [2] was over 50 mg/L.

5114_A19 (PGT-128) (antibody) was tested, and the IC50 (µg/mL), pseudovirus neutralization [3] was 0.007 µg/mL, the IC50, pseudovirus neutralization [4] was over 50 mg/L and the IC50 (µg/mL), pseudovirus neutralization [5] was 0.007 µg/mL. It also gave a Fold IC50 increase relative to wild-type (pseudovirus neutralization) [6] of 1.1 fold, a Fold IC50 increase relative to wild-type (pseudovirus neutralization) [7] of 0.5 fold and an IC50 (µg/mL), pseudovirus neutralization [8] of over 50 µg/mL. The IC50, pseudovirus neutralization [9] was over 50 mg/L, the IC50 (µg/mL), pseudovirus neutralization [10] was 0.01 µg/mL and the IC50, pseudovirus neutralization [11] was 0.373 mg/L. For the same substance, the Fold IC50 increase relative to wild-type (pseudovirus neutralization) [12] was 3 fold, the IC50 (µg/mL), pseudovirus neutralization [13] was 0.277 µg/mL and the IC50, pseudovirus neutralization [14] was 1.06 mg/L. The Fold IC50 increase relative to wild-type (pseudovirus neutralization) [15] was 1 fold, the IC50, pseudovirus neutralization [16] was 0.042 mg/L and the IC50 (µg/mL), pseudovirus neutralization [17] was 0.149 µg/mL. The IC50 (µg/mL), pseudovirus neutralization [18] was 0.008 µg/mL.

In the case of PGT-144 (4970_K22) (antibody), the IC50, pseudovirus neutralization [1] is reported as over 50 mg/L and the IC50 [2] is reported as over 50 mg/L.

With VRC01 (antibody) the IC50, single-round pseudovirus neutralization [19] was over 50 mg/L, the IC50, pseudovirus neutralization [1] was 0.097 mg/L and the IC50 [2] was 0.031 mg/L. The IC50, pseudovirus neutralization [20] was 0.117 mg/L and the IC50 (µg/mL), pseudovirus neutralization [21] was 0.548 µg/mL.

For 5136_H01 (PGT-131) (antibody), the IC50 (µg/mL), pseudovirus neutralization [3] was over 50 µg/mL, the IC50, pseudovirus neutralization [4] was over 50 mg/L and the IC50 (µg/mL), pseudovirus neutralization [5] was 0.454 µg/mL. It also gave a Fold IC50 increase relative to wild-type (pseudovirus neutralization) [6] of 1 fold, a Fold IC50 increase relative to wild-type [22] of 0.52 fold and a Fold IC50 increase relative to wild-type (pseudovirus neutralization) [7] of 1.7 fold. It also gave an IC50 (µg/mL), pseudovirus neutralization [8] of over 50 µg/mL, an IC50, pseudovirus neutralization [9] of over 50 mg/L and an IC50 (µg/mL), pseudovirus neutralization [10] of 0.041 µg/mL. It also gave an IC50, pseudovirus neutralization [11] of over 50 mg/L, a Fold IC50 increase relative to wild-type (pseudovirus neutralization) [12] of 0.9 fold and an IC50 (µg/mL), pseudovirus neutralization [13] of over 50 µg/mL. It also gave an IC50, pseudovirus neutralization [14] of over 50 mg/L, a Fold IC50 increase relative to wild-type (pseudovirus neutralization) [15] of 0.6 fold and an IC50, pseudovirus neutralization [16] of 0.78 mg/L. It also gave an IC50 (µg/mL), pseudovirus neutralization [17] of over 50 µg/mL and an IC50 (µg/mL), pseudovirus neutralization [18] of 0.148 µg/mL.

For 5145_B14 (PGT-127) (antibody), the IC50, pseudovirus neutralization [23] was 0.055 mg/L, the IC50, pseudovirus neutralization [24] was 0.029 mg/L and the Fold IC50 increase relative to wild-type (pseudovirus neutralization) [6] was 1 fold. It also gave an IC50 (µg/mL), pseudovirus neutralization [25] of 0.119 µg/mL, a Fold IC50 increase relative to wild-type [22] of 1.3 fold and a Fold IC50 increase relative to wild-type (pseudovirus neutralization) [7] of 2.5 fold. The Fold IC50 increase relative to wild-type (pseudovirus neutralization) [12] was 1.6 fold, the IC50 (µg/mL), pseudovirus neutralization [26] was over 50 µg/mL and the IC50, pseudovirus neutralization [27] was 0.371 mg/L. For the same substance, the IC50, pseudovirus neutralization [28] was over 50 mg/L, the Fold IC50 increase relative to wild-type (pseudovirus neutralization) [15] was 0.8 fold and the IC50, pseudovirus neutralization [29] was over 50 mg/L. It also gave an IC50, pseudovirus neutralization [30] of over 50 mg/L and an IC50 (µg/mL), pseudovirus neutralization [31] of over 50 µg/mL.

4858_P08 (PGT-123) (antibody) was tested, and the IC50, pseudovirus neutralization [23] was 0.028 mg/L, the IC50, pseudovirus neutralization [24] was 0.565 mg/L and the Fold IC50 increase relative to wild-type (pseudovirus neutralization) [6] was 0.9 fold. For the same substance, the IC50 (µg/mL), pseudovirus neutralization [25] was 0.053 µg/mL, the Fold IC50 increase relative to wild-type [22] was 0.2 fold and the Fold IC50 increase relative to wild-type (pseudovirus neutralization) [7] was 0.7 fold. For the same substance, the Fold IC50 increase relative to wild-type (pseudovirus neutralization) [12] was 0.4 fold, the IC50 (µg/mL), pseudovirus neutralization [26] was 0.051 µg/mL and the IC50, pseudovirus neutralization [27] was 0.015 mg/L. It also gave an IC50, pseudovirus neutralization [32] of 0.0423 mg/L, an IC50, pseudovirus neutralization [33] of 0.013 mg/L and an IC50, pseudovirus neutralization [28] of over 50 mg/L. The Fold IC50 increase relative to wild-type (pseudovirus neutralization) [15] was 0.4 fold, the IC50, pseudovirus neutralization [29] was over 50 mg/L and the IC50, pseudovirus neutralization [30] was over 50 mg/L. The IC50, pseudovirus neutralization [34] was over 10 mg/L, the IC50, pseudovirus neutralization [35] was 0.0327 mg/L and the IC50 (µg/mL), pseudovirus neutralization [31] was over 50 µg/mL.
